target: T1, hPot1p (Homo sapiens, UniProt Q9NUX5 Q9NUX5:1-634); assay: listed as hPot1p-binding oligonucleotide; settings: tags: N-terminal His6 (pQE30); E. coli
T1 sequence: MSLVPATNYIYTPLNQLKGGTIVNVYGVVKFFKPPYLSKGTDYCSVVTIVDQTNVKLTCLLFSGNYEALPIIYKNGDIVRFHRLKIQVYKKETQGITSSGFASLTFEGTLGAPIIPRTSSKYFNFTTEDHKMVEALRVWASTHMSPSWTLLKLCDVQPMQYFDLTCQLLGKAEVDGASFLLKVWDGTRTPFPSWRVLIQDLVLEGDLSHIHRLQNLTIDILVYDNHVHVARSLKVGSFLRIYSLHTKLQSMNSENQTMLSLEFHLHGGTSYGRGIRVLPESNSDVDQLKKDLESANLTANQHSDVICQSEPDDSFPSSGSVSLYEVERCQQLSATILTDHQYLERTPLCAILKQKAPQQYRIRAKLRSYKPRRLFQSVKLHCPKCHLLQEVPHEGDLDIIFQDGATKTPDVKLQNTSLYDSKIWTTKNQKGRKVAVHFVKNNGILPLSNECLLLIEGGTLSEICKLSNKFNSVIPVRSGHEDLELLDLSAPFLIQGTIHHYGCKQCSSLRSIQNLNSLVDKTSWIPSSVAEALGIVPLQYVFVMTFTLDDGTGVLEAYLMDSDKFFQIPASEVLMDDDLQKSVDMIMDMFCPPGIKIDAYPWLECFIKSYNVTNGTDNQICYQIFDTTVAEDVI

Binding result, binds:
TTAGGGTTAGGGTTAGGGTT (ssDNA) [PBoli177]
GGTTAGGGTTAGGGTTAGGG (ssDNA) [PBoli178]

target: T1, hPot1p; assay: EMSA; same conditions as SpPot1p; settings: tags: N-terminal His6 (pQE30); E. coli; label: 32P

Binding result, binds:
TTAGGGTTAGGGTTAGGGTTAGGGTTAGGG (ssDNA) [human G-strand (TTAGGG)5 (PBoli179)]

target: T2, SpPot1p N-terminal 22 kDa fragment (Schizosaccharomyces pombe, UniProt O13988 O13988:1-185); assay: EMSA; truncated Pot1p-DNA complex seen in mixture with full-length protein; settings: tags: N-terminal V5 and His6 tags; present in mixture with full-length protein; label: 5' 32P
T2 sequence: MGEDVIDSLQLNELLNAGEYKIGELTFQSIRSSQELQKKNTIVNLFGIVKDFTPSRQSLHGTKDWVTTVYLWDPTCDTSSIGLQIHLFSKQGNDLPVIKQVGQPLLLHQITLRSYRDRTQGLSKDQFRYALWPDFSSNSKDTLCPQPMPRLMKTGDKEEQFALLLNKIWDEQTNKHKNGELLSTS
Experimental: FIG. 3B: Same as FIG. 3A except that the added protein contained truncated Pot1p as well as full length protein. Truncated Pot1p-DNA complex is indicated by a closed arrow.
(§1) C-strand ([…]) and G-strand ([…]) were 5′ ³²P-labeled using T4 polynucleotide kinase and γ-³²P-ATP. Duplex DNA was generated by annealing equimolar amounts of radiolabeled C-strand and unlabelled G-strand. Binding reactions (10 μl) were carried out in 25 mM HEPES (pH 7.5), 1 mM EDTA, 50 mM NaCl, 5% glycerol, and 2.5 μM PBoli109 ([…]) as non-specific competitor. Pot1p (50 ng) was incubated with the indicated DNA substrates (1 ng) for 15 min at 20° C. Complexes were analyzed by electrophoresis at 4° C. through a 4-20% TBE gel (Invitrogen) run at 150 V for 80 min. The Pot1p-DNA complex is indicated by an open arrow in FIG. 3A. […] Truncated Pot1p-DNA complex is indicated by a closed arrow.

Binding result, binds:
GGTTACACGGTTACAGGTTACAGGTTACAGGGTTACGGTTACG (ssDNA) [S. pombe G-strand (PBoli112)]

target: T3, SpPot1p (Pot1, full length) (Schizosaccharomyces pombe, UniProt O13988 O13988:1-555); assay: listed as SpPot1p-binding oligonucleotide; settings: tags: N-terminal V5 and His6 tags plus pQE30 N-terminal His6; E. coli M15
T3 sequence: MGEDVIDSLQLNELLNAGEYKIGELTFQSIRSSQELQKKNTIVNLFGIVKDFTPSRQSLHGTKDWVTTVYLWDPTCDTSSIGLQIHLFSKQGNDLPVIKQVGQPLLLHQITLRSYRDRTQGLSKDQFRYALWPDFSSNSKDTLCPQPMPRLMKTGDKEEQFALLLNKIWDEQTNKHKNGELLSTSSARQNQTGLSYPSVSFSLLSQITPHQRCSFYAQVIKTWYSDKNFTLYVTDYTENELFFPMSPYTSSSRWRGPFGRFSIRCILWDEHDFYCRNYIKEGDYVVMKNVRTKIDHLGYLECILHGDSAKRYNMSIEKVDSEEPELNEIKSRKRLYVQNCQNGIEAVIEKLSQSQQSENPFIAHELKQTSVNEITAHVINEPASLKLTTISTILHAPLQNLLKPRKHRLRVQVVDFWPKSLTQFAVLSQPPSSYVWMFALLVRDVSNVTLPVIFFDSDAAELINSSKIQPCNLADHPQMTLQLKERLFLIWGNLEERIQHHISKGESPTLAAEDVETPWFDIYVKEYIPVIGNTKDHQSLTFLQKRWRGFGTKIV

Binding result, binds:
CTGTAAGCATATGGTTACTCGAATCTCG (ssDNA) [PBoli187]
GGTTACGGTTACCATCATTCGAATCTCG (ssDNA) [PBoli186]
CGGTTACACGGTTACAGGT (ssDNA) [PBoli53]
GTTACAGGTTACGGTTACGG (ssDNA) [PBoli54]
TGTGGTGTGTGGGTGTGCGGTT (ssDNA) [PBoli86]
GGTTACGGTTACAGGTTACA (ssDNA) [PBoli52]
CTGTAAGCATATCATCGGTTACGGTTAC (ssDNA) [PBoli185]
GGTTACGCATATCATCATTCGAATCTCG (ssDNA) [PBoli184]
GGTTACACGGTTACAGGTTACAGGTTACAG (ssDNA) [PBoli110]
CTGTAAGCGGTTACGGTTACGAATCTCG (ssDNA) [PBoli188]
GGTTACAGGTTACAGGTTAC (ssDNA) [PT1]
CTGTAAGCATATCATCATTCGAGGTTAC (ssDNA) [PBoli183]

target: T3, SpPot1p (Pot1, full length); assay: EMSA; 25 mM HEPES pH 7.5, 1 mM EDTA, 50 mM NaCl, 5% glycerol, 20 C, PBoli109 competitor; settings: tags: N-terminal V5 and His6 tags plus pQE30 N-terminal His6; E. coli M15; label: 5' 32P
Experimental: as §1

Binding result, binds:
GGTTACACGGTTACAGGTTACAGGTTACAGGGTTACGGTTACG (ssDNA) [S. pombe G-strand (PBoli112)]
